Assay [1] deals with T1, PTPRS expressed on cells (human, UniProt Q13332 30-1948).
T1 construct: whole, on cells; also called receptor-type tyrosine-protein phosphatase S
The assay is described as follows: cell surface interaction assay: streptavidin-tetramerized biotinylated ECD on transfected cells, immunofluorescence.

Assay [2] deals with T2, PTPRD expressed on cells (human, UniProt P23468 21-1912).
T2 construct: whole, on cells; also called receptor-type tyrosine-protein phosphatase delta
The assay is described as above.

Assay [3] concerns the target T3, PTPRZ1 expressed on cells (human, UniProt P23471 25-2315).
T3 construct: whole, on cells
The assay is described as follows: cell surface interaction assay: query ECD tetramerised with fluorescent streptavidin on transfected cells, immunofluorescence.

Assay [4] addresses T4, PTPRG expressed on cells (human, UniProt P23470 20-1445).
T4 construct: whole, on cells
Described as above.

Assay [5] addresses T5, PTPRT expressed on cells (human, UniProt O14522 26-1441).
T5 construct: whole, on cells
T5 sequence (looked up): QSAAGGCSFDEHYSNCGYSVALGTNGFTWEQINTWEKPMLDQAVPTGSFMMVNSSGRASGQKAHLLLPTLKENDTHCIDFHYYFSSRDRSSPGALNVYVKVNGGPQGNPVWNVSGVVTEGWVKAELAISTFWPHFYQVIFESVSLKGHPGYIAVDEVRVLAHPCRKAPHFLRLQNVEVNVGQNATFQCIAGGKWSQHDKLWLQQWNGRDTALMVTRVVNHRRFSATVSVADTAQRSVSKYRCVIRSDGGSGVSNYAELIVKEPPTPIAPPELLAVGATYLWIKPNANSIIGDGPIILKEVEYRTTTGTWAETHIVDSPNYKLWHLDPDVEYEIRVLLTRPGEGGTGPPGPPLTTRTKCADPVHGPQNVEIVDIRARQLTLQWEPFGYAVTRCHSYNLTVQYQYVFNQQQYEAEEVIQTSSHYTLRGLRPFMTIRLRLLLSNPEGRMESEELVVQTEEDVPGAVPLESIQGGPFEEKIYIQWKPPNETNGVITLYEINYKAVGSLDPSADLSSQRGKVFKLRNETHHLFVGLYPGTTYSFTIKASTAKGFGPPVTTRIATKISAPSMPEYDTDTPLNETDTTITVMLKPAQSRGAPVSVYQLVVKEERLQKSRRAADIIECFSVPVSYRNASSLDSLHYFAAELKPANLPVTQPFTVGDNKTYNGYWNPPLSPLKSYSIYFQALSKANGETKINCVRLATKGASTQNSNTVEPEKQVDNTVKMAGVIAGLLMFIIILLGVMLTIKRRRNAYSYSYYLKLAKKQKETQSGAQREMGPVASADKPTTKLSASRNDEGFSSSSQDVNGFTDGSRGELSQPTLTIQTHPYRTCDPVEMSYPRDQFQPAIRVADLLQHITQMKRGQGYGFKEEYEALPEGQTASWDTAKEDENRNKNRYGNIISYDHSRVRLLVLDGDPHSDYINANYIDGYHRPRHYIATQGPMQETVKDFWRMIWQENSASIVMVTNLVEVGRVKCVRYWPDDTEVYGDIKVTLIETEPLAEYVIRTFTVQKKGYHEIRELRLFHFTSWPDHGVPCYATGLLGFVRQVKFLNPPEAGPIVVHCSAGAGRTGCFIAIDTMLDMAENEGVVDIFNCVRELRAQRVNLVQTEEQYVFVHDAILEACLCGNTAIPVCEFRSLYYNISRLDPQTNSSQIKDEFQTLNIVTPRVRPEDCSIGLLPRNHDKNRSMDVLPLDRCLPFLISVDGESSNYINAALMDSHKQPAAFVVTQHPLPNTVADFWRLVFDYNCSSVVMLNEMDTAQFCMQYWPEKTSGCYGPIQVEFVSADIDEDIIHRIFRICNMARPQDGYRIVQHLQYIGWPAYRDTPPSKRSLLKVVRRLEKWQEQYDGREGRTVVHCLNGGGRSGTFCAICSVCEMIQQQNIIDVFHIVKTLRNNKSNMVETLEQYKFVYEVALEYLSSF
The assay is described as above.

For assay [6], the target named is T6, PTPRO expressed on cells (human, UniProt Q16827 30-1216).
T6 construct: whole, on cells
T6 sequence (looked up): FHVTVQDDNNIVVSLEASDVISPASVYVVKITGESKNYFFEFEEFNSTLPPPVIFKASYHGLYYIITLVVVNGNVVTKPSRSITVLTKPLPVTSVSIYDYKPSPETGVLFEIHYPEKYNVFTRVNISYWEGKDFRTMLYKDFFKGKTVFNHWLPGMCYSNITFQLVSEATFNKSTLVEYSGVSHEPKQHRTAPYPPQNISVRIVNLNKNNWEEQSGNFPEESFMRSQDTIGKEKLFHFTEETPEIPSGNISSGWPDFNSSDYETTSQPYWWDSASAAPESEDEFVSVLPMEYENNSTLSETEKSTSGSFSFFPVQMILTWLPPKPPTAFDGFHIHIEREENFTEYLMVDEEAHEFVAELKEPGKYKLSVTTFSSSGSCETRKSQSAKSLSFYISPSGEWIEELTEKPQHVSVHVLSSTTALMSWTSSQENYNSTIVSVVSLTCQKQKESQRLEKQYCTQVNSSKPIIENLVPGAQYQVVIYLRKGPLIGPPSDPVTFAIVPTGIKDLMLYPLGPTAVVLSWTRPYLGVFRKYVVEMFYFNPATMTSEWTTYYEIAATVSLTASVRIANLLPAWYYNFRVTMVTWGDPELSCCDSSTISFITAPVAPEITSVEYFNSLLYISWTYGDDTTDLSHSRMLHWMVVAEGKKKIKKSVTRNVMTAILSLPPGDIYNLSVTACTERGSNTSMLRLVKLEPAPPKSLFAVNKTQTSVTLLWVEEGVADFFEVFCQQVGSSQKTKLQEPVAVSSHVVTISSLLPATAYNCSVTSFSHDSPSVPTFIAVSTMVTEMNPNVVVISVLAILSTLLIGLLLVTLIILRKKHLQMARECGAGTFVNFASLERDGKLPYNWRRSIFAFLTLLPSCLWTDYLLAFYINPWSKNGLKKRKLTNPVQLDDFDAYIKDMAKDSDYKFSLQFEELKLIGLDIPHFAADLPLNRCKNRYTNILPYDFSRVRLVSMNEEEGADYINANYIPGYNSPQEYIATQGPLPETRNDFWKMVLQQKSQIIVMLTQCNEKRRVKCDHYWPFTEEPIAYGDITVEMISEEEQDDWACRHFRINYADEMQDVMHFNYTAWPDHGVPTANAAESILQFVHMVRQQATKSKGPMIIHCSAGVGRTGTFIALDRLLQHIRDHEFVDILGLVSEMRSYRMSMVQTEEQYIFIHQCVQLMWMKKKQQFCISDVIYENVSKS
Described as above.

Assay [7] deals with T7, PTPRM expressed on cells (human, UniProt P28827 21-1452).
T7 construct: whole, on cells
Described as above.

In assay [8] the target is T8, PTPRF expressed on cells (human, UniProt P10586 30-1907).
T8 construct: whole, on cells; also called receptor-type tyrosine-protein phosphatase F
The description is as above.

The target of assay [9] is T9, BTN3A1 full-length (co-IP) (human, UniProt O00481 30-513).
T9 construct: whole, on cells; also called BTN3A1-HA
The assay is described as follows: co-immunoprecipitation from co-transfected cells, IP anti-FLAG, western blot anti-HA. (In general: A western blot detects proteins with antibodies after separation by electrophoresis.)

The target of assay [10] is T10, LRRC4B expressed on cells (human, UniProt Q9NT99 36-713).
T10 construct: whole, on cells; C-terminally tagged in the co-IP; also called NGL-3; LRRC4B-FLAG
T10 sequence (looked up): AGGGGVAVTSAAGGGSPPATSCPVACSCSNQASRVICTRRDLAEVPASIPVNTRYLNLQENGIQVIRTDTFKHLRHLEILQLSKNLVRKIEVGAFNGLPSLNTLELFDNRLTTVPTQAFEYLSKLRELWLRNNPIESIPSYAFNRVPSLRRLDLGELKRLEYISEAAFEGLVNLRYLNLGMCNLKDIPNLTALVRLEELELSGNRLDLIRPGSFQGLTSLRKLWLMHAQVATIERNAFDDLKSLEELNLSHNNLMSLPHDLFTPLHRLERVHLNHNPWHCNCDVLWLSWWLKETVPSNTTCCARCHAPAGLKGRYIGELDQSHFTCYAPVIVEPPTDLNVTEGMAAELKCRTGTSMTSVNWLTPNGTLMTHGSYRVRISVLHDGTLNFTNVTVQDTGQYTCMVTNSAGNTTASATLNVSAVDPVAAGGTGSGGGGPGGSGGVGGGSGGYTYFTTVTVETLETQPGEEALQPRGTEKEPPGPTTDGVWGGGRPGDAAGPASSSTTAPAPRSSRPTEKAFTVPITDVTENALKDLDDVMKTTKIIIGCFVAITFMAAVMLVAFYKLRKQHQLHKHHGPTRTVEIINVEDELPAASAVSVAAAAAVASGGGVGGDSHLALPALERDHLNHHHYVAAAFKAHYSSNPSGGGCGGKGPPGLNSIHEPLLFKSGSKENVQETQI
Nature of the assay: cell surface interaction assay: query ECD tetramerised with fluorescent streptavidin on transfected cells, immunofluorescence.

T2 sequence (P23468 21-1912): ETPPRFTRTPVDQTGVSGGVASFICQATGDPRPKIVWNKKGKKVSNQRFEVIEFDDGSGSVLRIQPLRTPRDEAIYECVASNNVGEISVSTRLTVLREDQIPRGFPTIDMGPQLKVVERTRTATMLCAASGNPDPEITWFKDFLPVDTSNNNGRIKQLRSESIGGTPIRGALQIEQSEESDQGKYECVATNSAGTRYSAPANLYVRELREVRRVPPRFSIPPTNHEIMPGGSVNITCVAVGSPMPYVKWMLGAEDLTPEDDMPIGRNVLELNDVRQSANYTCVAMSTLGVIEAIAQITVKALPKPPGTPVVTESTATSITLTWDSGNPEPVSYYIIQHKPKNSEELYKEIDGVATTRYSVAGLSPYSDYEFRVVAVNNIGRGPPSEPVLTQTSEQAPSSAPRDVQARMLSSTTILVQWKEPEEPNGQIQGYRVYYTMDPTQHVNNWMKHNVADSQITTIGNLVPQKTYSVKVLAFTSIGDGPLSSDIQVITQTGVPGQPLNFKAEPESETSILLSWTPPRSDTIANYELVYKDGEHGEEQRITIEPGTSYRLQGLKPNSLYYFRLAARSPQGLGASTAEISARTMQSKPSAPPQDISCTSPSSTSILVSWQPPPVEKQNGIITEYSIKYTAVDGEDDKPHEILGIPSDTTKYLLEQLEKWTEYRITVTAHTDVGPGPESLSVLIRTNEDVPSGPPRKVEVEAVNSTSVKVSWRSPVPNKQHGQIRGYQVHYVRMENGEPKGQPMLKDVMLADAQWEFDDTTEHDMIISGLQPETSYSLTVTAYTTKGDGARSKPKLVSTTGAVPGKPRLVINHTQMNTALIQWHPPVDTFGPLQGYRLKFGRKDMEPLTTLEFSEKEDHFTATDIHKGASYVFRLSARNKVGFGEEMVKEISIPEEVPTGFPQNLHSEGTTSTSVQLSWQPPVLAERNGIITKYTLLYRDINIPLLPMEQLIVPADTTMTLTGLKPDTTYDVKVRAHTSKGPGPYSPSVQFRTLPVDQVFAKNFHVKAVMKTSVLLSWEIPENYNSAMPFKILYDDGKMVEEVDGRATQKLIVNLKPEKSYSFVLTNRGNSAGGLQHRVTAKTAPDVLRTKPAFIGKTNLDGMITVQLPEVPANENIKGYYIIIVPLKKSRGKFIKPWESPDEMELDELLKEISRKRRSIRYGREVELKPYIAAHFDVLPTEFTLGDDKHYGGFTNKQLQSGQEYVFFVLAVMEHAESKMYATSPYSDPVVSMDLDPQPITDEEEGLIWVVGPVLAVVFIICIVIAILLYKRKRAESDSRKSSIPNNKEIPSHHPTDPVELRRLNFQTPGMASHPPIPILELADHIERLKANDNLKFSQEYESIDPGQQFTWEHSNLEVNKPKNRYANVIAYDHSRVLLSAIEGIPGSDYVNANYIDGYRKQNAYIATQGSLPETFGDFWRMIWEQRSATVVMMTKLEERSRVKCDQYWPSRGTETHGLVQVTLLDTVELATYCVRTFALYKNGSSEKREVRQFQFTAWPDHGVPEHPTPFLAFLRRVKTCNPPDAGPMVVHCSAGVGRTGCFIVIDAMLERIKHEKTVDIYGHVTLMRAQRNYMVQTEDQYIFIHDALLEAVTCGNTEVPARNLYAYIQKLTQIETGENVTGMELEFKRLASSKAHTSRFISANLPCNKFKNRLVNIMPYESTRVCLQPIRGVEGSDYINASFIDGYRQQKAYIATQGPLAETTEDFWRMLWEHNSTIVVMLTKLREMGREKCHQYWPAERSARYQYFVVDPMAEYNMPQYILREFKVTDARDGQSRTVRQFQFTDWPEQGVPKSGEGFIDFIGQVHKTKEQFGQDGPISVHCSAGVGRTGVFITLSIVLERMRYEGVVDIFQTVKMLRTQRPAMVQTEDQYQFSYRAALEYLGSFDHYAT
T3 sequence (P23471 25-2315): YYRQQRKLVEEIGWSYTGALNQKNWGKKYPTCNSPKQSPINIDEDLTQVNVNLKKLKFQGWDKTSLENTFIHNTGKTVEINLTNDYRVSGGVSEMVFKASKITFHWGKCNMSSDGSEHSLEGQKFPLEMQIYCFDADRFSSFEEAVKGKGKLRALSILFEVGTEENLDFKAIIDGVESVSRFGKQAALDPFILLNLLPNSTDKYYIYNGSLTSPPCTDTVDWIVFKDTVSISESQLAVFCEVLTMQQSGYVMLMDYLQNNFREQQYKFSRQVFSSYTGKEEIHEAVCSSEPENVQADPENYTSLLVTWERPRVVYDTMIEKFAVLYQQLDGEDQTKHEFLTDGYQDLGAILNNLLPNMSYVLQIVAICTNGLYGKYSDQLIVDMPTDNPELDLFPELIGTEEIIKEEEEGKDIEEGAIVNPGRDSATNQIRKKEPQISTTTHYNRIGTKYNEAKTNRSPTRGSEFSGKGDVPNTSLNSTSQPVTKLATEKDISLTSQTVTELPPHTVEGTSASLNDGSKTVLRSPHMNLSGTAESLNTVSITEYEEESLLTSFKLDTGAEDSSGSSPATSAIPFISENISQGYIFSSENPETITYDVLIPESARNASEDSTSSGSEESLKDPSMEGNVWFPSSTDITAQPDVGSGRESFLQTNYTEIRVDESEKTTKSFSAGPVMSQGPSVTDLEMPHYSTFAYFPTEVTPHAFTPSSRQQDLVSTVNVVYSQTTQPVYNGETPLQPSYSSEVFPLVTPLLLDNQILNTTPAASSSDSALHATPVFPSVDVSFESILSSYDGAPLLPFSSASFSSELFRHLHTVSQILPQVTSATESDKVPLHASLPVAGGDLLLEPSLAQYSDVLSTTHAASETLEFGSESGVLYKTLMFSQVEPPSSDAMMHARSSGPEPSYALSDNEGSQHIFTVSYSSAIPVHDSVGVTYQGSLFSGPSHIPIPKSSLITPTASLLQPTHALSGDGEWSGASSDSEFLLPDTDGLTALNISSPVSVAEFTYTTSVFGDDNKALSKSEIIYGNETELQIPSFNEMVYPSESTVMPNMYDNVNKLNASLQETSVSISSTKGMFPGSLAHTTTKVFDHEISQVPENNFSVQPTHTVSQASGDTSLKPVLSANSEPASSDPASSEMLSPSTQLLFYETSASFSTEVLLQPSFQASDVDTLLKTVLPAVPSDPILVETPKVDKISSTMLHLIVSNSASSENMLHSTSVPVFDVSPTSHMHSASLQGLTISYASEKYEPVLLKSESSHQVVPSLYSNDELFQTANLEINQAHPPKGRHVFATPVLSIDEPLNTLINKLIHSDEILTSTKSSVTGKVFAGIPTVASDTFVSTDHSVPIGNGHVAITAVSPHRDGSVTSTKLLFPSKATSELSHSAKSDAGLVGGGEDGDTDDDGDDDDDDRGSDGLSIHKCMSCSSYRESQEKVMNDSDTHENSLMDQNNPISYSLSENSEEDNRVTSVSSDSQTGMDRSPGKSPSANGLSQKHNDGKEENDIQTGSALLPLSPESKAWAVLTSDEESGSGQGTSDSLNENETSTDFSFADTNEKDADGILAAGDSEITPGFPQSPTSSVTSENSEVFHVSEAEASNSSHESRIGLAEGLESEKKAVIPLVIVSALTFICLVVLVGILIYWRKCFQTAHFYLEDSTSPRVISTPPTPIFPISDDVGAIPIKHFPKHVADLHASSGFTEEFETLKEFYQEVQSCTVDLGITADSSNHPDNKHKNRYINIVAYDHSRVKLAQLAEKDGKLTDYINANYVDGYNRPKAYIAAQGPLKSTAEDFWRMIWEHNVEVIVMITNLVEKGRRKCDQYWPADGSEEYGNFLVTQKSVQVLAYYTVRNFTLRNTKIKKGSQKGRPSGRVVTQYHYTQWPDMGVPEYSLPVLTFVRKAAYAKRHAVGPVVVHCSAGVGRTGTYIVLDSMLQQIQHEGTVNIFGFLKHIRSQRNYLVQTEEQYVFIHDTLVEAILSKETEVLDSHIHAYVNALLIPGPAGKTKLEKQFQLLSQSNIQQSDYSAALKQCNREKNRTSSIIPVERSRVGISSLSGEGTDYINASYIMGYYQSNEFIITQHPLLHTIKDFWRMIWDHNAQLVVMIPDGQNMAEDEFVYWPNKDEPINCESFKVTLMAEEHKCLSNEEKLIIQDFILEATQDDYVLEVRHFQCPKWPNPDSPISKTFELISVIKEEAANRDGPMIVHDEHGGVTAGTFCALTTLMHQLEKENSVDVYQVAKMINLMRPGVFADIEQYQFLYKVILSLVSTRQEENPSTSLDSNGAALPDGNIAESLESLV
T9 sequence (O00481 30-513): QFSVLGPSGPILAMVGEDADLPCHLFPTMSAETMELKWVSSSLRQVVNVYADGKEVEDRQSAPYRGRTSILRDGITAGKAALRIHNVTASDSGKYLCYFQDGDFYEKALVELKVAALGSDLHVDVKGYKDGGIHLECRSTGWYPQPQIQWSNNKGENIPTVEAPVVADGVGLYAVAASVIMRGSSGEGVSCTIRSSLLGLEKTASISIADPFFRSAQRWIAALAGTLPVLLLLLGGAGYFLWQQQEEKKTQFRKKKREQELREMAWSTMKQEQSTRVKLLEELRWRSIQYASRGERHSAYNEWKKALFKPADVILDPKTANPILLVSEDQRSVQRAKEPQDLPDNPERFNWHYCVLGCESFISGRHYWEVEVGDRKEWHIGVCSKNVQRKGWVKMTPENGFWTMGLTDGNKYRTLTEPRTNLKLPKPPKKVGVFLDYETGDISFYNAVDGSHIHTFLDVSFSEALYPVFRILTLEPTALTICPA

B1: SLITRK2 extracellular domain (receptor, human, UniProt Q9H156 22-621, looked up)
chain: RKTAKDICKIRCLCEEKENVLNINCENKGFTTVSLLQPPQYRIYQLFLNGNLLTRLYPNEFVNYSNAVTLHLGNNGLQEIRTGAFSGLKTLKRLHLNNNKLEILREDTFLGLESLEYLQADYNYISAIEAGAFSKLNKLKVLILNDNLLLSLPSNVFRFVLLTHLDLRGNRLKVMPFAGVLEHIGGIMEIQLEENPWNCTCDLLPLKAWLDTITVFVGEIVCETPFRLHGKDVTQLTRQDLCPRKSASDSSQRGSHADTHVQRLSPTMNPALNPTRAPKASRPPKMRNRPTPRVTVSKDRQSFGPIMVYQTKSPVPLTCPSSCVCTSQSSDNGLNVNCQERKFTNISDLQPKPTSPKKLYLTGNYLQTVYKNDLLEYSSLDLLHLGNNRIAVIQEGAFTNLTSLRRLYLNGNYLEVLYPSMFDGLQSLQYLYLEYNVIKEIKPLTFDALINLQLLFLNNNLLRSLPDNIFGGTALTRLNLRNNHFSHLPVKGVLDQLPAFIQIDLQENPWDCTCDIMGLKDWTEHANSPVIINEVTCESPAKHAGEILKFLGREAICPDSPNLSDGTVLSMNHNTDTPRSLSVSPSSYPELHTEVPLSVL
notes: extracellular domain; Soluble query, streptavidin tetramer; also called SLITKR2
Take B1: the binding result in [1] is given as “binds”; in [2], “binds”; in assay [3] it was “no binding”; in [4], “no binding”; in assay [5], “no binding”; in [6] it was “no binding”. Further, the binding result in assay [7] and in [8] was “no binding” each time.

B2: VSIG8-FLAG (receptor, human, UniProt P0DPA2 22-414, looked up)
immunoprecipitated protein: VRINGDGQEVLYLAEGDNVRLGCPYVLDPEDYGPNGLDIEWMQVNSDPAHHRENVFLSYQDKRINHGSLPHLQQRVRFAASDPSQYDASINLMNLQVSDTATYECRVKKTTMATRKVIVTVQARPAVPMCWTEGHMTYGNDVVLKCYASGGSQPLSYKWAKISGHHYPYRAGSYTSQHSYHSELSYQESFHSSINQGLNNGDLVLKDISRADDGLYQCTVANNVGYSVCVVEVKVSDSRRIGVIIGIVLGSLLALGCLAVGIWGLVCCCCGGSGAGGARGAFGYGNGGGVGGGACGDLASEIREDAVAPGCKASGRGSRVTHLLGYPTQNVSRSLRRKYAPPPCGGPEDVALAPCTAAAACEAGPSPVYVKVKSAEPADCAEGPVQCKNGLLV
notes: full-length, tagged; also called VSIG8 full-length (co-IP)
Consider B2, for which the binding result in assay [9] was “no binding”.

B3: BTN2A2 extracellular domain (receptor, human, UniProt Q8WVV5 33-265, looked up)
chain: QFTVVGPANPILAMVGENTTLRCHLSPEKNAEDMEVRWFRSQFSPAVFVYKGGRERTEEQMEEYRGRITFVSKDINRGSVALVIHNVTAQENGIYRCYFQEGRSYDEAILRLVVAGLGSKPLIEIKAQEDGSIWLECISGGWYPEPLTVWRDPYGEVVPALKEVSIADADGLFMVTTAVIIRDKYVRNVSCSVNNTLLGQEKETVIFIPESFMPSASPWMVALAVILTASPWM
notes: extracellular domain; Soluble query, streptavidin tetramer
For B3, the binding result in assay [10] is “no binding”.

The values are drawn from patent US20220119490A1 (Genentech, published 2022).
